Reference: patent US12467929

How the values were obtained:
[1] = target: recombinant UBE3A protein (Homo sapiens (Human)) (UniProt Q05086); test: Simoa; capture GTX; 3E5 0.8 ug/ml; UBE3A 0.800 ng/ml
[2] = target: recombinant UBE3A protein (Homo sapiens (Human)) (UniProt Q05086); test: Simoa head-to-head, Table 11; capture GTX; UBE3A 4.00 ng/ml
[3] = target: recombinant UBE3A protein (Homo sapiens (Human)) (UniProt Q05086); test: Simoa; capture GTX + helper beads; 3E5 0.4 ug/ml; UBE3A 4.00 ng/ml
[4] = target: recombinant UBE3A protein (Homo sapiens (Human)) (UniProt Q05086); test: 3-step Simoa, 120 min bead step; capture GTX; UBE3A 0.0320 ng/ml
[5] = target: recombinant UBE3A protein (Homo sapiens (Human)) (UniProt Q05086); test: Simoa; capture GTX + helper beads; 3E5 0.2 ug/ml; UBE3A 0.00640 ng/ml
[6] = target: recombinant UBE3A protein (Homo sapiens (Human)) (UniProt Q05086); test: Simoa head-to-head, Table 11; capture GTX; UBE3A 500 ng/ml
[7] = target: recombinant UBE3A protein (Homo sapiens (Human)) (UniProt Q05086); test: Simoa head-to-head, Table 11; capture GTX; UBE3A 20.0 ng/ml
[8] = target: recombinant UBE3A protein (Homo sapiens (Human)) (UniProt Q05086); test: Simoa; capture GTX; 3E5 0.2 ug/ml; UBE3A 0.00128 ng/ml
[9] = target: recombinant UBE3A protein (Homo sapiens (Human)) (UniProt Q05086); test: Simoa head-to-head, Table 10; capture MS 2F6; UBE3A 0.16 ng/ml
[10] = target: recombinant UBE3A protein (Homo sapiens (Human)) (UniProt Q05086); test: Simoa; capture GTX, no helper beads; 3E5 0.4 ug/ml; UBE3A 20.0 ng/ml
[11] = target: recombinant UBE3A protein (Homo sapiens (Human)) (UniProt Q05086); test: Simoa head-to-head, Table 10; capture MS 2F6; UBE3A 4.00 ng/ml
[12] = target: recombinant UBE3A protein (Homo sapiens (Human)) (UniProt Q05086); test: Simoa; capture GTX; 3E5 0.4 ug/ml; UBE3A 4.00 ng/ml
[13] = target: recombinant UBE3A protein (Homo sapiens (Human)) (UniProt Q05086); test: Simoa; capture GTX + helper beads; 3E5 0.4 ug/ml; UBE3A 20.0 ng/ml
[14] = target: recombinant UBE3A protein (Homo sapiens (Human)) (UniProt Q05086); test: Simoa; capture GTX, no helper beads; 3E5 0.1 ug/ml; UBE3A 20.0 ng/ml
[15] = target: recombinant UBE3A protein (Homo sapiens (Human)) (UniProt Q05086); test: Simoa head-to-head, Table 11; capture MS 2F6; UBE3A 500 ng/ml
[16] = target: recombinant UBE3A protein (Homo sapiens (Human)) (UniProt Q05086); test: Simoa head-to-head, Table 10; capture MS 2F6; UBE3A 0.032 ng/ml
[17] = target: recombinant UBE3A protein (Homo sapiens (Human)) (UniProt Q05086); test: Simoa; capture GTX, no helper beads; 3E5 0.1 ug/ml; UBE3A 0.160 ng/ml
[18] = target: recombinant UBE3A protein (Homo sapiens (Human)) (UniProt Q05086); test: Simoa head-to-head, Table 11; capture MS 2F6; UBE3A 100 ng/ml
[19] = target: recombinant UBE3A protein (Homo sapiens (Human)) (UniProt Q05086); test: Simoa head-to-head, Table 11; capture MS 2F6; UBE3A 20.0 ng/ml
[20] = target: recombinant UBE3A protein (Homo sapiens (Human)) (UniProt Q05086); test: Simoa; capture GTX; 3E5 0.4 ug/ml; UBE3A 0.0320 ng/ml

UniProt Q05086, sequence (Q05086 whole entry): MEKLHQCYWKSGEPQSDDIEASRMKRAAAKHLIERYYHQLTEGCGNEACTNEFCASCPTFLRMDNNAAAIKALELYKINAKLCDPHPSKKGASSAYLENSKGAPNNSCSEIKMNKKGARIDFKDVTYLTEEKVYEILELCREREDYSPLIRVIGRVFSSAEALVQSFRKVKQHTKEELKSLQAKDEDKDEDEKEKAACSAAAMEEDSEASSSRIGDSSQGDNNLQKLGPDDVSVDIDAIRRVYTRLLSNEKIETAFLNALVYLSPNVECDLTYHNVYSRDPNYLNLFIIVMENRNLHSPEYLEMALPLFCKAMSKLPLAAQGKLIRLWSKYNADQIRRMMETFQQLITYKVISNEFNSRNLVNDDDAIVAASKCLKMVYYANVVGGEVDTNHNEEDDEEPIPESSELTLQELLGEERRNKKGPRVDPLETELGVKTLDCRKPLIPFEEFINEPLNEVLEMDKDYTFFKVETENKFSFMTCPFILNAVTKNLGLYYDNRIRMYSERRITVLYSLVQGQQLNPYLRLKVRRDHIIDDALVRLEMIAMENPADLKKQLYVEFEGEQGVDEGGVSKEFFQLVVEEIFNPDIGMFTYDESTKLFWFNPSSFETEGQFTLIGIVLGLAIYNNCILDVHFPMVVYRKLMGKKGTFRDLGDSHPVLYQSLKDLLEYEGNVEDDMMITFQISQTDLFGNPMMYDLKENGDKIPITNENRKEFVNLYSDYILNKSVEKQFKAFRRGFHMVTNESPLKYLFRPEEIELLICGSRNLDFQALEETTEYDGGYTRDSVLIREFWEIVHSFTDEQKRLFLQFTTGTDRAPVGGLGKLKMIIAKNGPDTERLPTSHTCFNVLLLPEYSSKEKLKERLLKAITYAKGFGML

- AEB1 [1]: 0.589
- AEB2 [1]: 0.605
- AEB3 [1]: 0.615
- Average AEB [1]: 0.603
- Signal to Background [1]: 4.92
- AEB1 [2]: 0.269
- AEB2 [2]: 0.262
- Ave AEB [2]: 0.266
- Signal to Background [2]: 32.4
- AEB1 [3]: 1.16
- AEB2 [3]: 1.12
- Average AEB [3]: 1.14
- Signal to Background [3]: 58.5
- AEB1 [4]: 0.0115
- AEB2 [4]: 0.0095
- Ave AEB [4]: 0.0105
- Signal to Background [4]: 6.15
- AEB1 [5]: 0.0133
- AEB2 [5]: 0.0127
- Average AEB [5]: 0.013
- Signal to Background [5]: 1.34
- AEB1 [6]: 9.97
- AEB2 [6]: 10.3
- Ave AEB [6]: 10.1
- Signal to Background [6]: 1240
- AEB1 [7]: 0.78
- AEB2 [7]: 0.821
- Ave AEB [7]: 0.8
- Signal to Background [7]: 97.8
- AEB1 [8]: 0.0457
- AEB2 [8]: 0.0439
- AEB3 [8]: 0.0421
- Average AEB [8]: 0.0439
- Signal to Background [8]: 1.12
- AEB1 [9]: 0.0183
- AEB2 [9]: 0.0155
- Ave AEB [9]: 0.0169
- Signal to Background [9]: 1.25
- AEB1 [10]: 6.8
- AEB2 [10]: 6.32
- Average AEB [10]: 6.56
- Signal to Background [10]: 336
- AEB1 [11]: 0.132
- AEB2 [11]: 0.127
- Ave AEB [11]: 0.13
- Signal to Background [11]: 9.58
- AEB1 [12]: 2.3
- AEB2 [12]: 2.58
- AEB3 [12]: 2.4
- Average AEB [12]: 2.43
- Signal to Background [12]: 38.8
- AEB1 [13]: 4.41
- AEB2 [13]: 6.45
- Average AEB [13]: 5.43
- Signal to Background [13]: 278
- AEB1 [14]: 3.57
- AEB2 [14]: 3.21
- Average AEB [14]: 3.39
- Signal to Background [14]: 592
- AEB1 [15]: 8.9
- AEB2 [15]: 8.6
- Ave AEB [15]: 8.75
- Signal to Background [15]: 2310
- AEB1 [16]: 0.0162
- AEB2 [16]: 0.0146
- Ave AEB [16]: 0.0154
- Signal to Background [16]: 1.14
- AEB1 [17]: 0.0402
- AEB2 [17]: 0.0395
- Average AEB [17]: 0.0399
- Signal to Background [17]: 6.95
- AEB1 [18]: 1.79
- AEB2 [18]: 1.84
- Ave AEB [18]: 1.81
- Signal to Background [18]: 479
- AEB1 [19]: 0.352
- AEB2 [19]: 0.348
- Ave AEB [19]: 0.35
- Signal to Background [19]: 92.5
- AEB1 [20]: 0.0958
- AEB2 [20]: 0.0924
- AEB3 [20]: 0.095
- Average AEB [20]: 0.0944
- Signal to Background [20]: 1.51
Substance: anti-UBE3A antibody 3E5 (SAB1404508-100 ug, Millipore-Sigma)
